Assay results published in FireProtDB (doi:10.1021/bi026827i).

Settings: Saccharomyces cerevisiae (strain ATCC 204508 / S288c); pH 7; 25 °C; GdnHCl; CD; Tris 20 mM; NaCl 40 mM; structure 1YCC

Cytochrome c isoform 1 K10Q|K11Q, P00044 K10Q K11Q, sequence (P00044 whole entry K10Q/K11Q, canonical isoform): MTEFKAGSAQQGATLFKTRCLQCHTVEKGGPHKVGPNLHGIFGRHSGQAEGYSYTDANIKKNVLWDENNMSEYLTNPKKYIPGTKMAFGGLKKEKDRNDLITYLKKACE
Cytochrome c isoform 1 K28Q, P00044, sequence (P00044 whole entry K28Q, canonical isoform): as the sequence (P00044 whole entry K10Q/K11Q, canonical isoform) above, with Q10K, Q11K, K28Q counted along it
Cytochrome c isoform 1 K17Q, P00044, sequence (P00044 whole entry K17Q, canonical isoform): as the sequence (P00044 whole entry K10Q/K11Q, canonical isoform) above, with Q10K, Q11K, K17Q counted along it
Cytochrome c isoform 1 K33Q, P00044, sequence (P00044 whole entry K33Q, canonical isoform): as the sequence (P00044 whole entry K10Q/K11Q, canonical isoform) above, with Q10K, Q11K, K33Q counted along it
Cytochrome c isoform 1 K60Q|K61Q, P00044 K60Q K61Q, sequence (P00044 whole entry K60Q/K61Q, canonical isoform): as the sequence (P00044 whole entry K10Q/K11Q, canonical isoform) above, with Q10K, Q11K, K60Q, K61Q counted along it

First: Cytochrome c isoform 1 K10Q|K11Q, P00044 K10Q K11Q
Second: Cytochrome c isoform 1 K17Q, P00044
The denaturant m value of the first is lower: 3.06 kcal/mol/M for the first, 5.33 kcal/mol/M for the second.

Going from Cytochrome c isoform 1 K28Q, P00044 to Cytochrome c isoform 1 K33Q, P00044, the denaturant m value rises from 3.2 kcal/mol/M to 3.7 kcal/mol/M.

Work on “Cytochrome c isoform 1 K60Q|K61Q, P00044 K60Q K61Q” yielded a denaturant m value of 3.06 kcal/mol/M.

First: Cytochrome c isoform 1 K10Q|K11Q, P00044 K10Q K11Q
Second: Cytochrome c isoform 1 K17Q, P00044
The “denaturant midpoint (higher = more stable)” value (“denaturant midpoint” for short) of the first is 1.6-fold higher: 1.05 M for the first, 0.64 M for the second.

Cytochrome c isoform 1 K28Q, P00044 and Cytochrome c isoform 1 K33Q, P00044 are within 1.5-fold of each other in “denaturant midpoint” value: 0.94 M for the first, 1.09 M for the second.

For “Cytochrome c isoform 1 K60Q|K61Q, P00044 K60Q K61Q”, the “denaturant midpoint” value was 0.99 M.

Compared with “Cytochrome c isoform 1 K10Q|K11Q, P00044 K10Q K11Q”, Cytochrome c isoform 1 K17Q, P00044 is higher in unfolding free energy: 3.2 kcal/mol for the first, 3.37 kcal/mol for the second.

First: Cytochrome c isoform 1 K28Q, P00044
Second: Cytochrome c isoform 1 K33Q, P00044
The unfolding free energy of the first is lower: 2.96 kcal/mol for the first, 4.04 kcal/mol for the second.

For “Cytochrome c isoform 1 K60Q|K61Q, P00044 K60Q K61Q”, the unfolding free energy was 3.04 kcal/mol.
